{"source": "a protein production outcome set (Wang et al. 2014)", "assay": "label from the status in PepcDB records", "data": [{"sequence": "MLEQGLDYVVKLAKSKKQILDANPMQYFIRAALAGIYIGFIIVLCFKLGNFFHIADSPATYLAASMFFGIALVLIIYGGAELFTGNTMYFTVATLRKETTISDTLRNWVACYAGNLAGALFFALLFYATGIFEAIDHGHLMNKVVEGKMNTPTMQLFFKAILCNWLVCLACFLPSQVKGDTAKIMIMMLLVFTFFLSGYEHSIANLSLFALSLVSPHPETISFAGAIHNLIPVTIGNIIGGSVFVGMVYHYLTKKVPDVKQEETELVAAQQEEIIPLQAHMKH", "values": [{"measurement": "protein production", "value": "failed"}]}, {"sequence": "MFNFFKNKQTEPAAPPPPKDPTPRIEFFNGISEELSNVSLQRNPKTGVKSVSMTFAQLNALDRFQSFTAGSNGIVRLIDEEGDIAVTPSSCRIVFGGEEGDELRGVICRFEIENDDHWERFMRFMHRYADEHGFAYGESAETSNEPSSLASETDSEA", "values": [{"measurement": "protein production", "value": "failed"}]}, {"sequence": "RLRQPMLRTGDQWQPIEWQAAFDLVAERLYAIQQQHGQNAVAVYQGNPSVHNYGLMTHSNYFLGLLKTRNRFSATSVDQLPHHLTSFLMYGHGMLLPIPDIDHTDFMLILGGNPLASNGSIMTVPDVEKRLKAIQQRGGKLVVVDPRRSETAAIADQHVFVRPGGDAALLFGLLNTLFEEGLTRESHLPVDGLDHVRHSIAGFSAEAMSPRCGIAAVQIRQLARDFAGADTALCYGRMGVSTQAFGTLCHWLAQLINLVTGNLDRVGGTLCTEPAVDLVSSTSGGHFNVWQSRVSGLPEYGGELPVSALAEEMLVEGQGQVRALVTVAGNPVLSTPNGRQLDQALEGLEFMLSIDLYINETTRHADLILPSTSALENDHYDTTFNTLAVRNVTRFNRAIFDKPEGALHDWEIFVGLAASFAAKAQRELKPTVPPAQMIDRVLRAGRYGAASPHNLSLETLASHPHGMDLGALKPNLTDRLKTANGRIQAAP", "values": [{"measurement": "protein production", "value": "failed"}]}, {"sequence": "MGTRRRRGRKAIAGLPGYLLLLVLVLVWLFQELRPGPVPPAETGEAEVYFMPEEGPRAKARLLALMDGARESLEGAFYEFRDLEVAQGLLRAKARGVRVRLYGESDYREDFRRYLVAASLGQREEPPRVRFAELKERVKPLSLDCEEVVGIPICYDEREGFMHHKFLVVDGRAVWTGSTNMTWNAFARNNENSLLLPSPTLAQGYAREFEALFGGQKEGLGQPVAFALEGVEGVAYFSPRGGRLAREALLKRLSEAQREVLVAAFVLTDREVLEALLQARRRGAEVKVLLETRNLGTSREEALLEEGLEVRQDANPYTMHHKVMLLDGTYVVTGSYNFSVRAHEVNNENLLVLKSPSLAERYRKEVLRLWEAGSPL", "values": [{"measurement": "protein production", "value": "failed"}]}, {"sequence": "MRVQANSRSMGVLEDKARARTFYKYLSKVYDRVNTFIWTEEMRAEALSMLDIDAEDRVLDVGCGTGFGTEGLLKHTEHVYGLDQSPHQLTKAWEKFGKHDPVAFHFGDAERLPFKPDSFDVVWSSGSIEYWPHPVQGLRELRRVAKPGSQVLVVGPDYPASTVFRKLADAIMLFYDEDEADRMFREAGYEEIQHRVLRKEPNSPPAIVTVARAPAADD", "values": [{"measurement": "protein production", "value": "failed"}]}, {"sequence": "MYRMDKYTIGLIRVITLEDKEILNLHGRIIESAFPELKVVSRCIEDQPKGIYNEETEREAEPKIIRLAKEFEREGVDAIIISCAADPAVEKVRKLLSIPVIGAGSSVSALALAYGRRVGVLNLTEETPKVIRSILGNNLIAEDHPSGVSNTLDLLTDWGRREVINAAKRLKEKGVEVIALGCTGMSTIGIAPVLEEEVGIPVIDPVIASGAVALHALKRREVKRFEGR", "values": [{"measurement": "protein production", "value": "not failed"}]}, {"sequence": "MPIAGIPYTEIVMAIVAFVLGFLVGYLIKNVIKIGIIVLAIIVILIAIGVVSPHTVVSGLQSMGVYATQAEQYVSRIINYLPYNSILFIIGFVIGLVKG", "values": [{"measurement": "protein production", "value": "failed"}]}, {"sequence": "MALDSSGKQPEQQQQQQPRASSGNGEARLKLRRTPNEEHEPENYEDLPLDYSPSLFTSLERYLPEQLLNSTRIDKASFMRDLLLRYSPDTERVRVLRHKEYRDKIMSSYQRLHGEIYTLDPSSFFAPSFLGAFSRKSEPNFRSSMVESYPGIFTFEMFKPQFCEMLLAEVEHMEKWVYDSRSTIMRPNTMNNFGVVLDDFGFDSMLQKLVDDFISPIAQVLFPEVCGTSLDSHHGYIVEYGKDRDVDLGFHVDDSEVSLNVCLGKQFSGGELYFRGVRCDKHVNSDSTEKEVYDYSHVPGHAILHRGRHRHGARATTSGHRANLILWCRSSTFREMKNYQRDFSGWCGGCKLDKQRRQRDSINATKEILARKAAEKTLVELASKSCAE", "values": [{"measurement": "protein production", "value": "failed"}]}, {"sequence": "MSPNLFIHPRQMPQILLALLGKNLVEIARQFFSARDSNPFFTPAGLTRIARLGRSAVLIGKSKPVPAGKRPTGSKPVHSLPPDRVDPENHARLEVAETDRFPLVKESAPPASFFVEQSPSPAFGEEGNGACKGSGIGGRCVLCVGGRAVLYPEYRRVVEASGGKLVIYRNLPQEPGHHLPVLLDQADMVVCPLDCVNHTAFFTVKRYCRRSGKPCVLLDRSNLSTFCKGIATLAGLYTSPAPARSDQSKRRCPASPEEGQFKDYLEHHHHHH", "values": [{"measurement": "protein production", "value": "failed"}]}, {"sequence": "MSQVRQVGLLAAGCQPWNKDVCAANGDRFAYCATLAIYIYQLDHRYNEFRLHAIMAEHKKTITAISWCPHNPDLFASGSTDNLVIIWNVAEQNVIAKLDNIKETPACLSWCWNTGDAVAFVSQKGPLLIWTISGPDSGVSVHKEAHGFVSDICIFRWHTQKKGKVAFGHTDGSISIFQPDEDDPVTALEWDPLSTDYLLVANLHYGIRLLDSESLYCITTFSFPSAAVSVQCLAWVPSAPGMFITGDSQVGVLRIWNVSRTTPIDSFKLKKAGFHCLHVVNSPPKRKFSVQSSNKNHYMSSTSEAVPPPSLTRNQAFSLPPGHVVCCFLDGGVGLYDMGAKKWDFLRELGHVETIFDCKFKPDDPNLLATASFDGTIKVWDINTLTAVYTSPGNEGVIFALSWAPGDLNCIAGATSRNGAFIWDIQKGKMIQRFNEHGKNGIFYIAWSHKDSKRIATCSGDGFCIIRTLDGKLLHKYKHPAAVFGCDWSQNNKDMIATGCEDKHVRVFYVASSSNQPLKVFSGHTARVFHVKWSPLREGVLCSGSDDGSVRIWDYTQDACISILNGHTAPVRGLMWNTEIPYLLISGSWDYTIKVWDTRGGVCLDTVYDHGADVYGLTCHPSRPFTMASCSRDSTVRLWSLIPLITPLQINILADRPWEEIIGNTDNAIEQASPPLLCGKASKDIKQEVEKLTCNPRVKKLRLFSECLSSPGGSDNLWNLVAVIKGQDDSLLPQNYYKGMMHLKHLIKFRTSEAQELTTIKMSKFGGGIGAPTKENKLKEAAEIHLRLGQIQRYCELMVELGEVA", "values": [{"measurement": "protein production", "value": "failed"}]}, {"sequence": "MSEFHSEISTLSPAPLWQFFDKICSIPHPSKHEEALAQYIINWATEQGFDVRRDPTGNVFIKKPATPGMENKKGVVLQAHIDMVPQKNEDTDHDFTKDPIQPYIDGEWVTAKGTTLGADNGIGMASCLAVLASKDIKHGPIEVLLTIDEEAGMTGAFGLEAGWLEGDILLNTDSEQEGEVYMGCAGGIDGAMTFDIKRDAIPTGFVTRQLTLKGLKGGHSGCDIHTGRGNANKLLGRFLAGHAQELDLRLVEFRGGSLRNAIPREAFVTVAVPAENQEKLAELFNYYTELLKAELGKVETGIVTFNEEIVTESQAFTAADQQRFIAALNACPNGVMRMSDEIEGVVETSLNVGVITTEENKVTVLCLIRSLIDSGRSQVESMLRSVAELAGAQVEFSGAYPGWKPDADSEIMAIFRDMYEGIYGHKPNIMVIHAGLECGLFKEPYPNMDMVSFGPTIKFPHSPDEKVKIDTVQLFWDQMVALLEAIPEKALEHHHHHH", "values": [{"measurement": "protein production", "value": "not failed"}]}, {"sequence": "MKKLLTLFCLMLGLSSTQALAAADNPVELIKDGSRQVLDVLKQDNGKNTKQVRQQAEAIAVPLFDFPRMTALAVGLGWRQATPEQRNELTQQFQTLLVRTYSTTMTRFKTAQVSVQPNPVSGANGKDVTVKSSVTLPGNANPVAVDYVLNKGDKGWKIYNVSVEGASLVTVYRNSFNEEIRKNGVDGLIKLLQDKNAAPAPAAASAAKGKGLEHHHHHH", "values": [{"measurement": "protein production", "value": "failed"}]}, {"sequence": "MSRAALGIRSSWVGFVAAATTAMASTIAPVAYAQVAHHVPNDGCSAVEVAVVGGTTQANIHDDPHDVYSFGKGTNFAVNMTRRFHNVTAWQLPYYSSAGITASNNDAEQKEFPPYAVSKNRGVDVLDAHLSDQAVKCPDTQFVIAGFSQGADIAGDMAERISRGKTNPALTPERVLGVYLLADPGRSDLPMNPTQGQTTTGKSGPLTDNGAVLIETNLGLPGAGSVGIAGPRAAGAFSNLPGKVRSICSSGDPACAVHPKGLLASVGKWANDQNDFEHVPVESVRTMMLNGSFFISLAPHMNKIRGDLYASDPVALKQHFDDASMHPRLTQPERNTLHLVGAEIAGLMGHLKQGRDQVAVGSSDTGLSSGGPRDRLIALEKIVQQQTGLVELQLAVGLMIVHLSYTGDSREVSTVGAQRADDWIDSDMTQLISGYLNTLSVRAPYVTLGERHTFIQKMGWPIWWIVSSIWGQRNHAARGVWEFFGL", "values": [{"measurement": "protein production", "value": "failed"}]}]}
